In patent US20130273029A1 (Novartis, published 2013):

Legend:
[1] = target: T1, HER3 L268A: CD33-[Human HER3, residues 20-640, L268A]-TAG (human, UniProt P21860 20-640); experiment: SET
T1 construct: also called HER3 L268A-Tag; human mutant HER3 (L268A); not shown: C-terminal TAG (e.g., FLAG TAG)

[2] = target: T2, HER3 K267A/L268A: CD33-[Human HER3, residues 20-640, K267A/L268A]-TAG (human, UniProt P21860 20-640); experiment: SET
T2 construct: not shown: C-terminal TAG (e.g., FLAG TAG)

[3] = target: T3, Hu HER3: CD33-[Human HER3, residues 20-640]-TAG (human, UniProt P21860 20-640); experiment: SET, IgG vs HER3 ECD
T3 construct: also called hu HER3-Tag; HER3-Tag; not shown: C-terminal TAG (e.g., FLAG TAG)
Protocol: Affinity determination in solution was essentially performed as previously described (Friguet et al., (1985) J Immunol Methods 77:305-19). In order to improve the sensitivity and accuracy of the SET method, it was transferred from classical ELISA to ECL based technology (Haenel et al., (2005) Anal Biochem 339:182-84).
The data was evaluated with XLfit software (ID Business Solutions) applying customized fitting models.
Antibody affinity was determined by solution equilibrium titration (SET) as described above. The results are summarized in Table 3 and example titration curves for MOR12616 and MOR12925 are contained in FIG. 1.

[4] = target: T4, Human HER3, endogenous, on human cancer cell lines (SK-Br-3, MCF7, BT-474) (human, UniProt P21860 20-1342); experiment: cell-based or functional assay
[5] = target: T4, Human HER3, endogenous, on human cancer …; experiment: cell-based or functional assay; remark: listed apart in the source
[6] = target: T4, Human HER3, endogenous, on human cancer …; experiment: cell-based or functional assay; remark: listed apart in the source
[7] = target: T5, HER3 K267A: CD33-[Human HER3, residues 20-640, K267A]-TAG (human, UniProt P21860 20-640); experiment: SET, IgG vs mutant HER3
T5 construct: also called HER3 K267A-Tag; not shown: C-terminal TAG (e.g., FLAG TAG)

[8] = target: T3, Hu HER3: CD33-[Human HER3, residues …; experiment: SET, IgG vs soluble HER3-Tag
How it was run: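 Affinity measured by solution equilibrium titration, with read-out moved from classical ELISA to ECL-based detection for sensitivity. Titration data were fitted with customized fitting models.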

T4 sequence (P21860 20-1342): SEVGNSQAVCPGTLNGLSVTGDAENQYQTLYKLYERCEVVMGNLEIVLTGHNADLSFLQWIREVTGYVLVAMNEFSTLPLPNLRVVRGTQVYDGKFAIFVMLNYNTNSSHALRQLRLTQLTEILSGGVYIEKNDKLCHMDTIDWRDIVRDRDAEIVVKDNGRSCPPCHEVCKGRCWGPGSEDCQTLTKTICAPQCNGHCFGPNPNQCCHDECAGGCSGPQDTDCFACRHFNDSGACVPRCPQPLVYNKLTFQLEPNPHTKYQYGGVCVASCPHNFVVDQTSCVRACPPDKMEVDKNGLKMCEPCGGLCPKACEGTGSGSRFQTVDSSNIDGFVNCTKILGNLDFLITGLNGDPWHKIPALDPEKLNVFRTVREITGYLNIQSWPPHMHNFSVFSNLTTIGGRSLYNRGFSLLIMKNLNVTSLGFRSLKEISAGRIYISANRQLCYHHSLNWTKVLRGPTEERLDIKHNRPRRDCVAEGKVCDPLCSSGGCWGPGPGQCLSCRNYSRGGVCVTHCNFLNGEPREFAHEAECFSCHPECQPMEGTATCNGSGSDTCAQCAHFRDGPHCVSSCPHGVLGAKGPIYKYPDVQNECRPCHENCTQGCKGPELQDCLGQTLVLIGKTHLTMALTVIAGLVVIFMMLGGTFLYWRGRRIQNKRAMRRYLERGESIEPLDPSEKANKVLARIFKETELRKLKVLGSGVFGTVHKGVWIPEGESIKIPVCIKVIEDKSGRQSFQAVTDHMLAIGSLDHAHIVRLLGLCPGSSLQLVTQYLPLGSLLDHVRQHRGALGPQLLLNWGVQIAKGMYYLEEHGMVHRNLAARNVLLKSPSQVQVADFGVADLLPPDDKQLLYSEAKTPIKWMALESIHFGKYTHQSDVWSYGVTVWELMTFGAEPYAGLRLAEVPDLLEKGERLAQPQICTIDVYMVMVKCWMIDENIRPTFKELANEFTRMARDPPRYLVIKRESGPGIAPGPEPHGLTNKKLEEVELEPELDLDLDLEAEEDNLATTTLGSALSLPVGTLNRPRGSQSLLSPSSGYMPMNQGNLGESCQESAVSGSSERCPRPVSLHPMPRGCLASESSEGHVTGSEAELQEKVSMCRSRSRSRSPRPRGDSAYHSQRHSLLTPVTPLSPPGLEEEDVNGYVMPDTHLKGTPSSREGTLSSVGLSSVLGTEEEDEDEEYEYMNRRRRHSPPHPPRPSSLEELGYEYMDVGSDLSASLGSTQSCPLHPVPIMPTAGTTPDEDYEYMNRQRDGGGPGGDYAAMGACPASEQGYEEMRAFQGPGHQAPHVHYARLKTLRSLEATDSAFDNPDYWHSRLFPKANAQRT
T3 sequence (P21860 20-640): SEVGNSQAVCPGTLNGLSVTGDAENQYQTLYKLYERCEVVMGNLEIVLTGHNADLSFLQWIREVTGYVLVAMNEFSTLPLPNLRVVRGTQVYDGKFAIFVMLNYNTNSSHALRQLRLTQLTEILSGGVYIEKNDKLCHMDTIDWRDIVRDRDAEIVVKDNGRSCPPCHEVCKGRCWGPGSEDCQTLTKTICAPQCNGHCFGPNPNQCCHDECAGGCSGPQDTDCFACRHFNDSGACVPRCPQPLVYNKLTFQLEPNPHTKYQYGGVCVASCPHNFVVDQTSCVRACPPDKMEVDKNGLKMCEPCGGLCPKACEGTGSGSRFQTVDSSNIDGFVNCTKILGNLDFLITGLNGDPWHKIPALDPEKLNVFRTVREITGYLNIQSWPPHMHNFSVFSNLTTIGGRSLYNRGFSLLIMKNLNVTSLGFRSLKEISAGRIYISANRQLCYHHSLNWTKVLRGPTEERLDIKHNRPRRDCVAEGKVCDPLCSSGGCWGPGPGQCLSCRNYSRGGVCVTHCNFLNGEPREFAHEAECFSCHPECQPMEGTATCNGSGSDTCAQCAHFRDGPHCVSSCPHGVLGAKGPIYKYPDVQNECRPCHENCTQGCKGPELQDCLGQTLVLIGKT
T5 sequence (P21860 20-640 K267A): as the sequence (P21860 20-640) above, with K248A counted along it
T2 sequence (P21860 20-640 K267A/L268A): as the sequence (P21860 20-640) above, with K248A, L249A counted along it
T1 sequence (P21860 20-640 L268A): as the sequence (P21860 20-640) above, with L249A counted along it

binding result [1]: no binding | binding result [2]: no binding | Kd [3]: 0.037 nM | BT474 pHER3 % inhibition [4]: 70% | BT474 pHER3 IC50 [4]: 437 pM | MCF7 pHER3 % inhibition [4]: 75% | MCF7 pHER3 IC50 [4]: 412 pM | SK-Br-3 pHER3 % inhibition [4]: 81% | SK-Br-3 pHER3 IC50 [4]: 139 pM | BT-474 pAkt (S473) % inhibition [5]: 81% | BT-474 pAkt (S473) IC50 [5]: 466 pM | MCF7 pAkt (S473) % inhibition [5]: 73% | MCF7 pAkt (S473) IC50 [5]: 347 pM | SK-Br-3 pAkt (S473) % inhibition [5]: 94% | SK-Br-3 pAkt (S473) IC50 [5]: 105 pM | BT-474 proliferation % inhibition [6]: 43% | BT-474 proliferation IC50 [6]: 1.21 nM | MCF7 proliferation % inhibition [6]: 58% | SK-Br-3 proliferation % inhibition [6]: 43% | SK-Br-3 proliferation IC50 [6]: 0.198 nM | Kd [7]: 0.099 nM | Kd [8]: 0.037 nM
B1: MOR13768 (antibody, human IgG1, kappa, V domains shown)
VH: QVQLVQSGAEVKKPGESLKISCKGSGYSFTSSWVAWVRQMPGKGLEWMGIIYPGQSDTIYSPSFQGQVTISADKSISTAYLQWSSLKASDTAMYYCARVHIIQPPSAWSYNAMDVWGQGTLVTVSS
VL: DIQMTQSPSSLSASVGDRVTITCRASQSISTYLNWYQQKPGKAPKLLIFGASNLQSGVPSRFSGSGSGTDFTLTISSLQPEDFATYYCQQSITELFTFGQGTKVEIKR
notes: tested as IgG
